Assay results taken from US20250177453A1 (Harvard, published 2025).

Target: T1, human PD-L1 expressed on the surface of SC-islet cells (human, UniProt Q9NZQ7 19-290)
T1 construct: whole, on cells; also called PD-L1 on B2P SC-islet cells
Test: flow cytometry, labelled PD-1-Fc on dissociated SC-islet cells

T1 sequence (Q9NZQ7 19-290): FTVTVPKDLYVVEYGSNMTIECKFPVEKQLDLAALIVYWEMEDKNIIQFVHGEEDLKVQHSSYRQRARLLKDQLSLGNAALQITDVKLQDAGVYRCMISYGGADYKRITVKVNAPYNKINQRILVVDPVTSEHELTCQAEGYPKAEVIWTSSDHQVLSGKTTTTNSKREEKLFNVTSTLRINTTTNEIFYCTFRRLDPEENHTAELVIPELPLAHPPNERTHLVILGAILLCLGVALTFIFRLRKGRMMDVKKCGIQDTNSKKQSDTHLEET

- binding result: binds
B1: PE-conjugated mouse PD1-Fc (Fc fusion, UniProt Q02242 25-167, looked up)
chain: LEVPNGPWRSLTFYPAWLTVSEGANATFTCSLSNWSEDLMLNWNRLSPSNQTEKQAAFCNGLSQPVQDARFQIIQLPNRHDFHMNILDTRRNDSGIYLCGAISLHPKAKIEESPGAELVVTERILETSTRYPSPSPKPEGRFQ
modifications: PE-conjugated (fluorescently labelled)
notes: It says only 'fluorescently labelled, soluble' PD-1-Fc; also called soluble mouse PD-1-Fc; soluble mouse PD-1; not shown: Fc part
